How the values were obtained:
Test in all cases: cell-based or functional assay
[1] = molecular target: human wildtype CSF-1R (full-length) (human) (UniProt P07333)
[2] = molecular target: human mutant CSF-1R L301S Y969F (human) (UniProt P07333)
[3] = molecular target: CSF-1R of cynomolgous monocytes (cynomolgous)

Substance | % inhibition 10 µg/ml antibody concentration (BeWo cells, CSF-1 induced growth) [1] [%] | wtCSF-1R IC30 (cell viability, CellTiterGlo, 3D culture) [1] [µg/mL] | wtCSF-1R IC50 (cell viability, CellTiterGlo, 3D culture) [1] [µg/mL] | Mutant CSF-1R IC30 (cell viability, CellTiterGlo, 3D culture) [2] [µg/mL] | Mutant CSF-1R IC50 (cell viability, CellTiterGlo, 3D culture) [2] [µg/mL] | % survival (cynomolgous monocytes with huCSF-1, 5 µg/ml antibody) [3] [%]
Anti CSF-1R SC 2-4A5 (Santa Cruz Biotechnology, US) (antibody) | 39 | 16.6 | 10 | 2.56 | 10 | 31
goat polyclonal anti-CSF-1R antibody ab10676 (abcam) | – | 14.2 | – | > 20 | – | –
